In experiment [1] the target is iodinated murine LIF (125I-mLIF) (mouse, UniProt P09056 24-203). Put plainly: radioligand binding on transfected Ba/F3 cells.
The target of experiment [2] is murine LIF, unlabelled (mouse, UniProt P09056 24-203). Put plainly: displacement of 125I-mLIF from Ba/F3 cells transfected with LIFRα and gp130. Background: Displacement assays read how much labelled ligand stays bound in the presence of the test substance.
In experiment [3] the target is T1, human LIFRα from HEK 293 cell extracts (human, UniProt P42702 45-1097).
T1 construct: Endogenous protein from crude cell extract; also called hLIFRα
T1 sequence (looked up): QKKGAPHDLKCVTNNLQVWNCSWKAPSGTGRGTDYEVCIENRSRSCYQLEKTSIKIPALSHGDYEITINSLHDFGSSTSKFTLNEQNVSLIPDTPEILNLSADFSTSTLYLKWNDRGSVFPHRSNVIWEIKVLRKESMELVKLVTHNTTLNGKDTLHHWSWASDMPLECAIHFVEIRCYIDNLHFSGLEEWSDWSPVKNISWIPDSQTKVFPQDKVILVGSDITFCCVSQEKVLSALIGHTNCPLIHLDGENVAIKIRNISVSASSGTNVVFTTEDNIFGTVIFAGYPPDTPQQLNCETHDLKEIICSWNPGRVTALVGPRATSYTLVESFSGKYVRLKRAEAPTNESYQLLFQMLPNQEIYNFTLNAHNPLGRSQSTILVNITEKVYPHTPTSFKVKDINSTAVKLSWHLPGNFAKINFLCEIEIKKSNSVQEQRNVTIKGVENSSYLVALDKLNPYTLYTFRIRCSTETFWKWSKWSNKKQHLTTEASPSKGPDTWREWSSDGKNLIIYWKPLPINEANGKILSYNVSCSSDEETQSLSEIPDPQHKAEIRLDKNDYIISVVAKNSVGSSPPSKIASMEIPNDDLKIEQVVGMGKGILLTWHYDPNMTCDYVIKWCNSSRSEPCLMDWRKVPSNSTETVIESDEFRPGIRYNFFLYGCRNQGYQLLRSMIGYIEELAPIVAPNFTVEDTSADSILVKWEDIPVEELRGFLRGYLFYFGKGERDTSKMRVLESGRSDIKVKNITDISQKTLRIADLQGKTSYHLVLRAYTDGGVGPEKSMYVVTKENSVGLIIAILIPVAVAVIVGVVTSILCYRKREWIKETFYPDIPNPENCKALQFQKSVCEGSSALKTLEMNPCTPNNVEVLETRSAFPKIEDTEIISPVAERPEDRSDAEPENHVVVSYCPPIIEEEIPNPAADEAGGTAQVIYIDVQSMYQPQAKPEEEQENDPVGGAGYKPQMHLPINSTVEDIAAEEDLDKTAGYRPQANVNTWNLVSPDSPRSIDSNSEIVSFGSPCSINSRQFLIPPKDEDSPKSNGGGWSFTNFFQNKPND
As to the kind of experiment: GST pull-down, HEK cell extracts as prey, anti-LIFR Western blot. A general note: A western blot detects proteins with antibodies after separation by electrophoresis.

The target of experiment [4] is T2, V5-His-tagged murine soluble LIFR, secreted by HEK 293 cells (mouse, UniProt P42703-2 44-719, limits assumed).
T2 construct: Used as culture supernatant; also called msLIFR; murine soluble LIFRα; not shown: V5-His tag
T2 sequence (looked up): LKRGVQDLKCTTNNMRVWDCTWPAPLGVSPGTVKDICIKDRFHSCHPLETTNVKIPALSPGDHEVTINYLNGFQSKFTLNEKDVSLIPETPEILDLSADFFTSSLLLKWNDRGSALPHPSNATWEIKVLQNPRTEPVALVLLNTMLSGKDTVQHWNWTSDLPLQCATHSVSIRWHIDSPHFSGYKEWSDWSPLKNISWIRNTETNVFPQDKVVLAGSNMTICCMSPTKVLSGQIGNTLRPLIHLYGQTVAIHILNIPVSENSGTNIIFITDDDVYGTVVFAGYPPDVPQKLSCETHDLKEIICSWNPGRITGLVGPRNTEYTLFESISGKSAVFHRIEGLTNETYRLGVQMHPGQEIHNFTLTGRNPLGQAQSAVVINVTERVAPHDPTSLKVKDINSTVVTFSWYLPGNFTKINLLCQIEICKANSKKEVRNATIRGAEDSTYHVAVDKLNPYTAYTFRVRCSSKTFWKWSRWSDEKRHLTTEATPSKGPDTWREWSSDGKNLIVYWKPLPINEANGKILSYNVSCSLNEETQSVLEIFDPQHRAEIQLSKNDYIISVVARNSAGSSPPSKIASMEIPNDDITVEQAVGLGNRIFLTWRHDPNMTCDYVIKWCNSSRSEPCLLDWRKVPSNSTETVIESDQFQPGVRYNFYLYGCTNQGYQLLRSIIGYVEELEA
As to the kind of experiment: GST pull-down, HEK supernatant with msLIFR as prey, anti-V5 Western blot.

B1: heterodimeric LIF receptor (murine gp130 and LIFRα) on transiently transfected Ba/F3 cells (receptor)
chain 1: QLLEPCGYIYPEFPVVQRGSNFTAICVLKEACLQHYYVNASYIVWKTNHAAVPREQVTVINRTTSSVTFTDVVLPSVQLTCNILSFGQIEQNVYGVTMLSGFPPDKPTNLTCIVNEGKNMLCQWDPGRETYLETNYTLKSEWATEKFPDCQSKHGTSCMVSYMPTYYVNIEVWVEAENALGKVSSESINFDPVDKVKPTPPYNLSVTNSEELSSILKLSWVSSGLGGLLDLKSDIQYRTKDASTWIQVPLEDTMSPRTSFTVQDLKPFTEYVFRIRSIKDSGKGYWSDWSEEASGTTYEDRPSRPPSFWYKTNPSHGQEYRSVRLIWKALPLSEANGKILDYEVILTQSKSVSQTYTVTGTELTVNLTNDRYVASLAARNKVGKSAAAVLTIPSPHVTAAYSVVNLKAFPKDNLLWVEWTPPPKPVSKYILEWCVLSENAPCVEDWQQEDATVNRTHLRGRLLESKCYQITVTPVFATGPGGSESLKAYLKQAAPARGPTVRTKKVGKNEAVLAWDQIPVDDQNGFIRNYSISYRTSVGKEMVVHVDSSHTEYTLSSLSSDTLYMVRMAAYTDEGGKDGPEFTFTTPKFAQGEIEAIVVPVCLAFLLTTLLGVLFCFNKRDLIKKHIWPNVPDPSKSHIAQWSPHTPPRHNFNSKDQMYSDGNFTDVSVVEIEANNKKPCPDDLKSVDLFKKEKVSTEGHSSGIGGSSCMSSSRPSISSNEENESAQSTASTVQYSTVVHSGYRHQVPSVQVFSRSESTQPLLDSEERPEDLQLVDSVDGGDEILPRQPYFKQNCSQPEACPEISHFERSNQVLSGNEEDFVRLKQQQVSDHISQPYGSEQRRLFQEGSTADALGTGADGQMERFESVGMETTIDEEIPKSYLPQTVRQGGYMPQ
chain 2: LKRGVQDLKCTTNNMRVWDCTWPAPLGVSPGTVKDICIKDRFHSCHPLETTNVKIPALSPGDHEVTINYLNGFQSKFTLNEKDVSLIPETPEILDLSADFFTSSLLLKWNDRGSALPHPSNATWEIKVLQNPRTEPVALVLLNTMLSGKDTVQHWNWTSDLPLQCATHSVSIRWHIDSPHFSGYKEWSDWSPLKNISWIRNTETNVFPQDKVVLAGSNMTICCMSPTKVLSGQIGNTLRPLIHLYGQTVAIHILNIPVSENSGTNIIFITDDDVYGTVVFAGYPPDVPQKLSCETHDLKEIICSWNPGRITGLVGPRNTEYTLFESISGKSAVFHRIEGLTNETYRLGVQMHPGQEIHNFTLTGRNPLGQAQSAVVINVTERVAPHDPTSLKVKDINSTVVTFSWYLPGNFTKINLLCQIEICKANSKKEVRNATIRGAEDSTYHVAVDKLNPYTAYTFRVRCSSKTFWKWSRWSDEKRHLTTEATPSKGPDTWREWSSDGKNLIVYWKPLPINEANGKILSYNVSCSLNEETQSVLEIFDPQHRAEIQLSKNDYIISVVARNSAGSSPPSKIASMEIPNDDITVEQAVGLGNRIFLTWRHDPNMTCDYVIKWCNSSRSEPCLLDWRKVPSNSTETVIESDQFQPGVRYNFYLYGCTNQGYQLLRSIIGYVEELAPIVAPNFTVEDTSADSILVKWDDIPVEELRGFLRGYLFYFQKGERDTPKTRSLEPHHSDIKLKNITDISQKTLRIADLQGKTSYHLVLRAYTHGGLGPEKSMFVVTKENSVGLIIAILIPVAVAVIVGVVTSILCYRKREWIKETFYPDIPNPENCKALQFQKSVCEGSNALKTLEMNPCTPNNVEVLESRSIVPKIEDTEIISPVAERPGERSEVDPENHVVVSYCPPIIEEEITNPAADEVGGASQVVYIDVQSMYQPQAKAEEEQDVDPVVVAGYKPQMRLPISPAVEDTAAEDEEGKTAGYRPQANVNTWNLVSPDSPRSTDSNNEVVSFGSPCSINSRQFLIPPKDEDSPKSNGGGWSFTNFFQNKPND
notes: whole, on cells; Also used here for the endogenous LIFR of murine M1 cells in the proliferation assay; also called classical LIFR; LIFRα/gp130
On to B1, for which the binding result in experiment [1] and in experiment [2] was “binds” throughout.

B2: GST fusion protein of mature murine EPO, expressed in E. coli (ligand, mouse, UniProt P07321 27-192, looked up)
chain: APPRLICDSRVLERYILEAKEAENVTMGCAEGPRLSENITVPDTKVNFYAWKRMEVEEQAIEVWQGLSLLSEAILQAQALLANSSQPPETLQLHIDKAISGLRSLTSLLRVLGAQKELMSPPDTTPPAPLRTLTVDTFCKLFRVYANFLRGKLKLYTGEVCRRGDR
notes: mature; also called GST-matmEPO; matmE; not shown: N-terminal GST tag from pGEX-6P-1
Turning to B2, the binding result in experiment [3] and in experiment [4] was “no binding” throughout.

These data come from patent publication EP2226633A1 (Charité - Universitätsmedizin Berlin, dated 2010).
